Test results from the nanobody polyreactivity screen of Harvey et al. (2022).

Experiment: yeast display, Sf9 membrane polyspecificity reagent, FACS + sequencing; frameworks hold sequencing errors
Procedure, shortened: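 A synthetic nanobody library was expressed on Saccharomyces cerevisiae BJ5465 by galactose induction for 36–48 hours. The library was stained for 1 hour at 4 °C with 10% biotinylated, detergent-solubilized Sf9 membrane reagent and enriched with streptavidin microbeads before FACS. Low and high (top ~1%) gates were set on anti-HA fluorescence for expression and streptavidin fluorescence for reagent binding, and each polyreactivity label reflects the gate of origin.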

| Sequence | polyreactivity (PSR sort gate) |
| --- | --- |
| QVQLVESGGGLVLAGGSLRLSCAASGRILGSYAMGWYRQAPGKERELVAGISWRGGRTSYADSVKGRFTISRDNAKNPVYLQMNSLKPEDTAVYYCATRSSSRKYGYWGQGTQVTVSS | high polyreactivity |
| QVQLVESGGGLVQAGRSLRLICAASGSTFPSYAMGWYRQAPGNERELVAAINSGGGTNYADAVKGRFTISRDNAKNTVYLQMNSLKPEDTAVFYCAKSRYDYTKTEGGYWGQATQVTVSS | low polyreactivity |
| QVQLVESGGGLVQAGGSLRLSCAASGSIFYRYAMGWYRQAPGKERELVAAIRWSGGSTYYADSVKGRFTISRDNAKNTVYLQMNSQKPEDTAVYYCATEVSYGGYWSWYGYWGQGTQVTVSS | low polyreactivity |
| QVQLVESGGGLVQAGGSLRLSCAASGRIFARNAMGWYRQAPGKERELVAAISWSGGRTYYADSVKGRFTISRDNAKNTVYLQMNSLKPEDTAVYYCAADHYPWWAWEFDYWGQGTQVTVSS | low polyreactivity |
| QDQLVESGGGLVQAGGSLRLSCAASGTFGGYAMGCYRQAPRKERELVARIRRNGGSTYYADSVKGRFTISRDNAKNTVYLQMNCLKPEDTAVYYCATYRYVYGTASYGYWGQGTQVTVSS | high polyreactivity |
| QVQHVESGGGLVQAGGSLRLSCAASGFIFPVYAMGWYRQAPGKDRELVAAISSGGITNYADSVKVRFTISRDNAKNTVYLQMNSLKPEDTAVYYCAARDYVRFGLYDYDYWGQGTQVTVSS | low polyreactivity |
| QVQLVESGGALVQAGGSLRLSCAASGRILRGNAMGWYRPAPGKERELVADINYSDGSTYYADSVKGRFTISRDNAKNTVYLQMNSLKPEDTAVYYCAKKNPLVFTSGMDYWGQGTQVTVSS | low polyreactivity |
| QVQHVESGGGLVQAGGSLRLSCPASGSIFARYAMGWYRQAPGKERELVAAITSGGITNYADSVMGRFTISRDNAKNTVYLQMISLNPEDTAVYYCAARRSGRVRYDYWGQGTQVTVSS | high polyreactivity |
| QVQRVESGGGLVQAGGSLRISCAASGLTINNYARGWYRQAPGKERELVAAISFSGGDTYYADSVKGRFTISRDNAKNTVYLQMNSLKPEDTGVYYFAAESYSVLQMGYWGQGTQVTVSS | high polyreactivity |
| QVQLVESGGGLVQAGGSLRLSCAASGSIFWLYAMGWYRQAPGKERELVAAMSWSGTSTNYADSVKGRFTISRDIAKNTVYLQMNRLKPEDTAVYYCAKRWNNQKLFGYEEEYDYWGQGTQVTGSS | low polyreactivity |
| QVQLVESGGGLVQAGGSLRLSCAASGRIFSRYAMGWYRQAPGKERELVATISSGGGTYYADSVKGRFTISRDNAKNTVYLQMNSLKPEDTAVYYCAVQVWYGRYYYWGQGTQVTVSS | high polyreactivity |
| QVQLVESGVGLVQAGGSLRLSCAAYGYTFYRYAMGWYRQAPGKERELVAAINKSGGRTYYADSVKGRFTISRDNAKNTVYLQMNSLKPEDTAVYYCNTPFDYPDNPEYDYWGQGTQVTVSS | high polyreactivity |
| QVQLVESGGGLVQAGGSLRLSCASSGSIFAGYAMGWYRQAPGKERELVATITSGGSTNYADSVKGRFTISRDNAKNTVYLQMNSLKPEDTAVYYCAADVEVSIPSSYTGGEYDYWGQGTQVTVSS | low polyreactivity |
| QVQLVESGGGLVQAGGSLRLSCAASGSTFYNNAMGWYRQAPGKERELVATISASSTSTYYADSVKGRFTISRDNAKNTVYLQMNSLKPEDTAVYYCAKDYVHGSTYGYYWYGYDYWAQGTQVTVSS | low polyreactivity |
| QVQLVESGGGLVQAGGSLGLSCAASGIIFGTYGMGWYRQAPGKERELVAAITTRGSSTYYADSVKGRFTISRDNAKNSVYLQMNSLKPEDTAVYYCAAVSVRRNRMDSWGQGTQVTVSS | high polyreactivity |
| QVQLVESGGGLVQAGGSLRLSCAASGSTLAGYAMGWYRQAPGKERELVAAITRRGGRTYYADSVKGRFTISRDNAKNTVYLQMNSLKPEDTAVYYCAAQRSVKVDYWGQGTQVTVSS | high polyreactivity |
| QVQLVESGGGLVQAGGSLRLSCAASGRTYHQYAMGWYRQAPGKERELVARITSGGRTNYADSVKGRFTISRDNAKNTVYLHMNSLKPEDTAVYYCPAASSYYFYISSKLDYWGQGTQVTVSS | high polyreactivity |
| QVQLVESGGGLVQAGGSLRLSCAASGFIIRRYAMGWYRPAPGKERELVARISFRGGSTYYADSVKGRFTISRDNAKNTVYLQMNSLKPEATAVYYCNRDPLYSKVVDGDYWGHGTQVTVSS | high polyreactivity |
| QVQLVESGGGLVQAGGSLRLSCAASGRIVKRNAMGWYRHAPGKERELVAAISYSGGSTYYADSVKGRFTISRDNAKNTVYLEMMSLKPEDTAVYYCAVDRYPTGITKYDYWGQGTQVTVSS | high polyreactivity |
| QVQLVESGGGLVQAGGSLRLSCAASGSTFHRYVMGWYRQAPGKERELVAVINSTGGSTYYADSVKGRFTISRDNAKNTVYLQMNSLKPEDNAVYYCARVTRRGPGYTTLYSRYDYWGQGTQVTVSS | low polyreactivity |
| QDQRVESAGGLVQAGGSLRLSCAASGNIFDPNAMGGYRQAPGKERELVAAIRRGGSTNYADSVKGRFTISRDNAKNTVYLQMISLKPEDTAVYDCDKSRVSFTDLEGYYWGQGTLVTVSS | low polyreactivity |
| QDQLVESGGGLVQAGGSLRLSCAASGRTFIRNAMGWYRQAPGKERELVAAITNSGGSTYYADSVKGRFTISRDNAKNTVYLQMNSLNPEDTAVYDCNRVYRSHRPYTYPFSYDYWGQGTQVTVSS | high polyreactivity |

| Sequence | polyreactivity (PSR sort gate) |
| --- | --- |
| QVQLVESGGGLVQAGGSLRLSCAASGRIFVTNTMGWYRQAPGKERELVAAIDNSAGSTYYADSVKGRFTISRDNAKNTVYLQMNSLKPEDTAVYYCAADYPPYYGYGYWGQGTQVTVSS | low polyreactivity |
| QVQLVDSGGGLVQAGGRLRLSCAASGRTFSVNAMGWYRQAPGKERELVAAIRWRAGSTYYADSVKGRFTISRDNAKNTVYLQMNSLKPEDTAVYYCNAVTYGGRTLFPYDYWGQGTQVTVSS | high polyreactivity |
| QVQLVESGGGLVQAGGSLRLSCAASGSILGRNAMGWYRQAPGKERELVAGITWSTVSTYYADSVKGRFTISRDNAKNTVYLQMNSLKPEDTAVYYCAAAPNLWAYRRWYYTYYYWGQGTQVTVSS | high polyreactivity |
| QVQLVESGGGLVQAGGSLRLSCAASGRTFRGNAIGWYRQAPGKERELVAAIRWNGGSTYYADSVKGRFTISRDNAKNTVYLQMNSLKPEDTAVYYCAVSYWYSRYDYWGQGTQVTVSS | high polyreactivity |
| QVQLVESGGCLVQAGGSLRLSCAASGLTFGSNAMGWYRQAPGKERELVAAISSTGSTYYADSVKGRFTISRDNAKNTVYLQMNSLKPEDTAVYYCAAYDYWGQGTQVTVSS | low polyreactivity |
| QVQLVESGGGLVQAGGSLRLSCAASGITFYRNAMGWYRQAPGKERELVAAISRRGGITRYADSVKGRFTISRDNAKNTVYLQMNSLKPEDTAVYYCAKAIGSTALRRATEDYWGQGTQVTVSS | high polyreactivity |
| QVQLVESGGGLDQAGGSLRLSCAPSGRIFYTNAMGWYRQAPGKERELVAAISSGGGRTYYADSVKGRFTISRDNAKNTVYLQMNSLKPEDTAVYYCAASNVGYRSYSRGFDYWGQGTQVTVSS | high polyreactivity |
| QVQLVESVGGIVQAGGSLRLSCAASGRTFTYNVMGWYRQAPGKEMELVAAITSGGSNYADSVKGRFTISRDNAKNTVYLQMNSLTPEDTAGYYCATDYYEDVTIGYDYWGQGTQVTVSS | low polyreactivity |
| QVQLVESGGGLVQAGGSLRLSCAASGSTINYNAMGWYRQAPGKERELVAAIDSGVSTNYADSVKGRFTITRDNAKNTVYLQMNSLKPEDTAVYYCNADPDYFDYWGQGTQVTVSS | low polyreactivity |
| QVQLVESGGGLVQAGGSLRLSCAASGSTFRDYAMGWYRQAPGKERELVAAITSGGTTDYADSVKGRFTISRYNAKNTVYLQMISLKPEDTAVYYCNKDGVVAGYQYDYWGQGTQVTVSS | low polyreactivity |
| QVQLVESGGGLVQAGGSLRLSCAASGFTFVYNAMGWYRQAPGKERELVAAITSGGNTYYADSVKGRFTISRDNAKNTVYLQMNSLKPEDTAVYYCAKRGYVRYYAYDYWGQGTQVTVSS | high polyreactivity |
| QVQLVESGGGLVQAGGSLRLSCAASGNIFTSYAMGWYRQAPGKERELVAAISSGGRTSYADSVKGRFTISRDNAKNTVYLEMNSLKPEDNAVYYCAAYYRRWQREYYYWGQGTKVTVSS | high polyreactivity |
| QVQLVESGGGLVQAGGSLRLSCAASGSIFDPYAMGWYRQAPGKERELVAAITSDGSTNYADSVKGRFTISRDNAKNTVYLQMNSLKPEDTAVYYCAKHQFGRYVVLYPRGHWFDYWGQGTQVTVSS | low polyreactivity |
| EVQLVESGGGLVHAGGSLRLICAASGFTFTGYTMGWYRQAPGKERELVATISGSGGNTYYADSVKGRFTISRDNAKNTVYLQINSVKPEDTAVYYCARLRSGPRVLYYYWGQGTQVTVSS | low polyreactivity |
| QVHLVESGGGLVQAGGSLRLSCAASGRTFSAYAMGWYRQAPGKEREDVAAISRSGGSTYYADSVKGRFPISRDNAKNTVYLQMNILTPEDTAVSDCAVRWPSARIPVKLEDWGQGTQVTVSS | high polyreactivity |
| QVQLVESGGGLVQAGGSLRLSCAASGNTFHSNAMGWYRQAPGKERELVAAITPSDGDTYYADSVKGRFTISRDNAKNTVYLQMNSLKPEDTSVYYCAAEDDPGEYEYWGQGTQVTVSS | low polyreactivity |
| QVQLVESGGGLVQAGGSLRLSGDASGSTFIYNAMGWYRQAPGKERELVAAIDWSGGDTYYADSVKGRFTISRDKAKNTVYLLMNSLKPEDTAVYYCAAVKRGGFYWGQGTQVTVSS | high polyreactivity |
| QVQLVESGGGLLQAGGSLRLSCAASGFTFRYYAMGWYRQAPGKERELVAAISRSGGSTYYADSVKGRFTISRDNAKNTVYLQMNSLKPEDTAVYYCAADDRYGSRYYYWGQGTQVTVTS | high polyreactivity |
| QVQLVESGGGLVQAGGSLRLSCAASGSTFRQYAMGWSRQAPGKERELVAAISSSGGSTYYADSVKGRFTISRDNAKNTVYLQMNSLKPEDTAGYYCNARLYGSASWGQPKEYDYWGQGTQVTVSS | low polyreactivity |
| QVQLVESGGGLVQAGGSLRLSCAASGSTFEPYAMGWYRQAPGKERELVAAISSGGSTSYADSVKGRFTISRDNAKNTVYLQMNSLKPEDTAVYYCAKRWRSYRHEDYGYWGQGTQVTVSS | low polyreactivity |
| QVQLQESCGGLVQEAGSLRLSCAASGNISPPADMGWYRQAPGKQRELVASIGTGGTTNYADSEKGRFTISRDNAKNTVYLQMNSLKPEDSAVYYCNVDIGVYAYESDYWGQGTQVTVSS | low polyreactivity |
